pKd: −log10 of the molar value.
How the values were obtained:
[1] = molecular target: Cry1Ab toxin of Bacillus thuringiensis subsp. berliner 1715 (trypsin-activated) (Bacillus thuringiensis subsp. berliner 1715) (UniProt P0A370); test: native gel or EMSA
[2] = molecular target: Fluorescently labeled EC12 probe (EC12 A36C/Y44W conjugated with Alexa-488) (Manduca sexta); test: native gel or EMSA

Substance | decrease of the capacity to compete with the EC12 probe, against EC12WT [1] [%] | pKd [2]
EC12_(SQ/AA) (alanine substitution of the serine-glutamine dipeptide in EC12) (domain or fragment) | 50 | 
Cry1Ab toxin of Bacillus thuringiensis subsp. berliner 1715 (trypsin-activated) (from UniProt P0A370 1-1155) (natural protein) |  | 7.71

Source: PMC6366636
